According to article PMC4947154, “Structural basis of transcobalamin recognition by human CD320 receptor” (Nature Communications, 2016):

T1: CD320 extracellular domain, residues 53-199 (crystallization construct) (human, UniProt Q9NPF0 53-199)
T1 construct: CD320 (transcobalamin receptor), human, residues 53-199 of the extracellular domain; native secretion signal replaced with a Melittin secretion signal; Density seen for LDLR-A1 residues 53-89 and LDLR-A2 residues 129-171; none for the EGF-like domain (90-128); also called N-terminal 22 amino acid deletion of the receptor; not shown: His9, N-terminal, cleaved; MBP, N-terminal, cleaved
T1 sequence (looked up): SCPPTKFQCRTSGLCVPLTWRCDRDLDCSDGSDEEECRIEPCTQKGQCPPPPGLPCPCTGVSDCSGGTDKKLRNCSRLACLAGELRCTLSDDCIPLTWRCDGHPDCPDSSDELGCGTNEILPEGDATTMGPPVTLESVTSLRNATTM

B1: MBP-tagged, biotinylated CD320 LDLR-A2 domain (residues 125-199, Avi Tag) (domain or fragment)
chain: not shown
modifications: biotin on the Avi Tag (BirA)
notes: CD320, human, LDLR type A domain 2 construct, residues 125-199; source: Sf21 insect cells (Multibac baculovirus), secreted, purified (Ni-NTA, no MBP cleavage), biotinylated with BirA; not shown: His9, N-terminal, kept; MBP, N-terminal, kept
B2: human transcobalamin (holo-TC, cyanocobalamin-bound) (natural protein, UniProt P20062 19-427, looked up)
chain: EMCEIPEMDSHLVEKLGQHLLPWMDRLSLEHLNPSIYVGLRLSSLQAGTKEDLYLHSLKLGYQQCLLGSAFSEDDGDCQGKPSMGQLALYLLALRANCEFVRGHKGDRLVSQLKWFLEDEKRAIGHDHKGHPHTSYYQYGLGILALCLHQKRVHDSVVDKLLYAVEPFHQGHHSVDTAAMAGLAFTCLKRSNFNPGRRQRITMAIRTVQEEILKAQTPEGHFGNVYSTPLALQFLMTSPMRGAELGTACLKARVALLASLQDGAFQNALMISQLLPVLNHKTYIDLIFPDCLAPRVMLEPAAETIPQTQEIISVTLQVLSLLPPYRQSISVLAGSTVEDVLKKAHELGGFTYETQASLSGPYLTSVMGKAAGEREFWQLLRDPNTPLLQGIADYRPKDGETIELRLVSW
notes: transcobalamin (TC), human, residues 1-409, cDNA GenBank BC001176.1 harbouring R209Q; native secretion signal replaced with a Melittin secretion signal; Purified in the presence of excess cyanocobalamin (Cbl-CN), so the Cbl site is occupied; R209Q came with the bought cDNA clone (ImaGenes); also called tag-less TC; full-length TC; source: Sf21 insect cells (Multibac baculovirus), secreted, …

Tests used:
[1] = molecular target: B2; assay: ELISA; solid-phase binding assay: biotinylated MBP-tagged receptor on Neutravidin plates, tag-less TC serially diluted in 20 mM Tris pH 7.5, 0.5 mM CaCl2, 150 mM NaCl, 0.05% Tween-20, 1 h RT; TC detected with antibody A-5; single-site fit, n=5; details: both partners purified
[2] = molecular target: T1, CD320 extracellular domain, residues …; assay: crystal structure; co-crystals of the purified complex, sitting drop, 20 °C; details: both partners purified

Row | Binder | Kd [1] | stoichiometry N [2]
1 | B1 | ~10 nM | 
2 | B2 |  | 1 TC:CD320
